This assay concerns the target SARS-CoV-2 WA.1 Spike-6P trimer (SARS-CoV-2 (WA.1)). In words: cryo-EM structure.

A word on the stoichiometry N: it is a count of units in the complex or per binding partner. Regarding SARS-CoV-2 WA.1 Spike-6P trimer, the stoichiometry N was 3.
